Experimental findings from US20200407433A1 are described below.

What is called EC50 is the concentration giving half of the maximal effect. Low readings indicate an effect from little substance, high ones a need for much substance.

The labels stand for the following.
B1: murine mAb 24G7B10G2 (antibody, mouse IgG2a, V domains shown)
VH: EVQLLQSGPELMKPGTSVKISCKASGYTFTDYYMNWVKQSHGKSLEWIGDVNPNNGDTTYNQKFKGKATLTIDKSSSTAYMELRSLTSEDSAVYYCASITIVPLYFDFWGQGTTLAVSS
VL: DIVMTQSQKFMSTSVGDRVSVTCKASQNVGINVAWYQQKPGQSPKALLYSASYRYSGVPDRFTGSGSGTDFTLTISNVKSGDLAEYFCQQYNTYPYTFGGGTKLEIK
B2: murine mAb 30B8G9B11 (antibody, mouse IgG2a, V domains shown)
VH: EVQLQQSGPELVKPGASVKISCKASGYTFTDYYMNWVKQSHGKSLEWIGDVNPNNGGTHYNQKFKGKATLTVDKSSSTAYMELRSLTSEDSAVYYCASITIVPVYFDFWGQGTTLTVSS
VL: DIVMTQSQKFMSTSVGDRVSVTCKASQNVGPNVAWYRQKPGQSPKALIYSASYRYSGVPDRFTGSGSGTDFTLTISNVQSEDLADYICQQYNYYPYTFGGGTKLEIK
B3: murine mAb 6G5C8C4 (antibody, mouse IgG2a, V domains shown)
VH: EVQLQQSGPELVKPGASVKISCKASGYTFTDYYMNWVKQSHGKSLEWIGDINPNNGGTTYNQKFKGKATLTVDKSSTTAYMELRSLTSEDSAVYYCAVITIVPYYFDYWGQGTTLTVSS
VL: DIVMTQSQKFMSTSVGDRVSVTCKASQNVGSNVAWYQQKPGQSPKALIYSASFRYSRVPDRFSGSGSGTDFTLTISNVQSEDLADYFCQQYNSYPYTFGAGTKLELK

For the test, the target named is Primate CGRP (primate (macaque)). The test can be described thus: ELISA, primate CGRP binding.
Sequence of Primate CGRP (primate (macaque)) (P06881 83-119): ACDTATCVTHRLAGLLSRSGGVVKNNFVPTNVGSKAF
B1 had a 50% effective concentration (EC50) of 0.072 nM. Consider B2, for which the half-maximal effective concentration (EC50) was determined as 0.07 nM.

In turn, B3 showed a concentration giving a half-maximal response (EC50) of 0.101 nM.
